Target: pheromone-biosynthesis-activating neuropeptide receptor (fire ant PBAN-R) (fire ant (Solenopsis invicta))
Experiment: phage display selection on Sf9 cells expressing PBAN-R, 3-4 rounds; count of sequenced clones

Abundance of phage clones [clones]	Molecule
2	CVKLGSHFC (Cysteine-Cysteine S-S bond at the N- and C-terminal ends) [… (SEQ ID NO: 6)]
2	CVKQGTHFC (loop-constrained by a pair of flanking cysteine (C) residues) [… (SEQ ID NO: 9)]
3	CIQQGSHFC (loop-constrained by a pair of flanking cysteine (C) residues) [… (SEQ ID NO: 4)]
2	CQSINGHFC (loop-constrained by a pair of flanking cysteine (C) residues) [… (SEQ ID NO: 8)]
2	CIVQGSHFC (loop-constrained by a pair of flanking cysteine (C) residues) [… (SEQ ID NO: 7)]
7	CLKIGSHFC (Cysteine-Cysteine S-S bond at the N- and C-terminal ends) [… (SEQ ID NO: 3)]
2	CRGATPMSC (Cysteine-Cysteine S-S bond at the N- and C-terminal ends) [… (SEQ ID NO: 12)]
2	CIVQGSHFC (loop-constrained by a pair of flanking cysteine (C) residues) [… (SEQ ID NO: 10)]
2	CMARYMSAC (Cysteine-Cysteine S-S bond at the N- and C-terminal ends) [… (SEQ ID NO: 11)]
3	CERVGSHFC (loop-constrained by a pair of flanking cysteine (C) residues) [… (SEQ ID NO: 5)]

Target: pheromone-biosynthesis-activating neuropeptide receptor (fire ant PBAN-R) (fire ant (Solenopsis invicta))
Experiment: as above
Remark: another data set of the same source

Abundance of phage clones [clones]	Molecule
1	NTGGSMA (SEQ ID NO: 35) (peptide)
1	TNANHYF (SEQ ID NO: 31) (peptide)
1	IHIGSHF (SEQ ID NO: 16) (peptide)
1	TNGDSAR (SEQ ID NO: 33) (peptide)
1	YSSPSHF (SEQ ID NO: 23) (peptide)
1	ERVGTHY (SEQ ID NO: 24) (peptide)
1	LPWQIHN (SEQ ID NO: 29) (peptide)
1	IHXGTHF (SEQ ID NO: 22) (peptide)
1	TQIGTHF (SEQ ID NO: 17) (peptide)
1	QQTKNYY (SEQ ID NO: 32) (peptide)
1	VSRTSHL (SEQ ID NO: 28) (peptide)
1	IQIGTHF (SEQ ID NO: 18) (peptide)
1	IKVGPHY (SEQ ID NO: 25) (peptide)
1	HSRVSGT (SEQ ID NO: 21) (peptide)
1	ERVGTHF (SEQ ID NO: 20) (peptide)
1	LPMTKHV (SEQ ID NO: 30) (peptide)
1	QSIGTHF (SEQ ID NO: 19) (peptide)
1	NTGSPYE (SEQ ID NO: 36) (peptide)
1	IKIGSHY (SEQ ID NO: 26) (peptide)
1	TXVGSHF (SEQ ID NO: 15) (peptide)
1	SQLPWYS (SEQ ID NO: 34) (peptide)
1	QRIGLHY (SEQ ID NO: 27) (peptide)

Source: patent US20180086790A1
